Laboratory results taken from PMC7938106, “In vitro complex formation of human PYRIN domain-only protein 3 prevented by self-oligomerization of ASC PYD domain” (Saudi Journal of Biological Sciences, 2021).

Target: the molecule itself
Test: SEC-MALS; POP3 PYD (1-83) alone on column HR 10/30 in 20 mM Tris-HCl pH 8.0, 150 mM NaCl; three-angle light scattering and refractive index detectors, ASTRA software

B1: PYD domain of PYRIN Domain-Only Protein 3 (POP3), amino acids 1-83 (domain or fragment, human, UniProt W6CW81 1-83, looked up)
chain: MESKYKEILLLTSLDNITDEELDRFKCFLPDEFNIATGKLHTLNSTSSQLDLKRWHGVCSEEDRIFQKLNYMLVAKCLREEQE
notes: PYRIN domain-only protein 3 (POP3), human, PYD domain, residues 1-83 of the 113-residue protein; The vector probably adds linker residues before the His6; also called POP3 PYD (1-83 aa); POP3PYD; not shown: His6, C-terminal, kept
stoichiometry N: 2
